3 molecules from patent publication US20240410900A1 (Hoffmann-La Roche, published 2024) can be followed below.

Test [1] deals with T1, anti-VEGF/ANG2 antibody (IgG1 subclass with mutations P329G/L234A/L235A/I253A/H310A/H435A).
T1 construct: Format of the bispecific antibody not described; Positions are EU numbers, not positions on the UniProt entry; also called sample 1; antibody 1
Briefly: ELISA assay C, tracer FcγRI-Dig, target 13 ng/mL. For orientation: In an ELISA, binding on a coated surface is turned into a signal by an enzyme label.

Test [2] has as its target T2, anti-P-Selectin antibody (IgG4 subclass with mutations S228P/L235E).
T2 construct: Positions are EU numbers; also called sample 4; antibody 4
The experiment in a line: ELISA assay C, tracer FcγRI-Dig, target 13 ng/mL.

Test [3] concerns the target T3, anti-VEGF/ANG2 antibody (wild-type IgG1 subclass) (UniProt P01857-1 1-330 = IgG part).
T3 construct: also called sample 5; antibody 5
The experiment in a line: ELISA assay C, tracer FcγRI-Dig, target 13 ng/mL.

Test [4] has as its target T4, anti-IGF-1R antibody (IgG1 subclass with mutations I253A/H310A/H435A).
T4 construct: Positions are EU numbers; also called sample 3; antibody 3
The experiment in a line: ELISA assay C, tracer FcγRI-Dig, target 13 ng/mL.

Test [5] has as its target T5, anti-VEGF/ANG2 antibody (IgG1 subclass with mutations P329G/L234A/L235A).
T5 construct: Positions are EU numbers; also called sample 2; antibody 2
The experiment in a line: ELISA assay C, tracer FcγRI-Dig, target 13 ng/mL.

The target of test [6] is T3, anti-VEGF/ANG2 antibody (wild-type IgG1 …). The experiment in a line: ELISA assay C, tracer FcγRI-Dig, target 25 ng/mL.
Test [7] concerns the target T4, anti-IGF-1R antibody (IgG1 subclass …). Briefly: ELISA assay C, tracer FcγRI-Dig, target 25 ng/mL.
Test [8] deals with T1, anti-VEGF/ANG2 antibody (IgG1 subclass …). Briefly: ELISA assay B, tracer M1.7.10-Dig, target 100 ng/mL. As to the method:
(§1) Biotinylated anti-PG Fc-region antibody or biotinylated anti-AAA Fc-region antibody, respectively, was bound to the wells of a streptavidin-coated multi-well plate (SA-MTP) to produce a capture plate. Excess of unbound antibody was removed by washing. Sample/standard antibodies spiked in human and cynomolgus monkey serum (10% final concentration) was added to wells of the SA-MTP multi-well plate coated with the capture plate and incubated for 1 hour at room temperature. After washing, the wells were incubated with digoxygenylated anti-human kappa antibody M1.7.10 (see e.g. WO 2011/048043, incorporated herein by reference). After washing the bound digoxygenylated anti-human kappa antibody complex was incubated with a horseradish peroxidase (HRP) labelled anti-digoxygenin antibody. After another washing step, an ABTS solution was added to the wells and incubated. The product of the color reaction was measured by Elisa reader at 405 nm wavelength (reference wavelength: 490 nm). Absorbance values of each sample or standard were determined in triplicates.

The target in test [9] is T2, anti-P-Selectin antibody (IgG4 subclass …). The description is as above. How it is done: as §1
Test [10] concerns the target T3, anti-VEGF/ANG2 antibody (wild-type IgG1 …). The test is described as above. How it is done: as §1
Test [11] has as its target T4, anti-IGF-1R antibody (IgG1 subclass …). The description is as above. How it is done:
as §1

For test [12], the target named is T5, anti-VEGF/ANG2 antibody (IgG1 subclass …). The test is described as above. As to the method:
as §1

In test [13] the target is T1, anti-VEGF/ANG2 antibody (IgG1 subclass …). Briefly: ELISA assay C, tracer FcγRI-Dig, target 3 ng/mL.
Test [14] has as its target T2, anti-P-Selectin antibody (IgG4 subclass …). Briefly: ELISA assay C, tracer FcγRI-Dig, target 3 ng/mL.
The target of test [15] is T3, anti-VEGF/ANG2 antibody (wild-type IgG1 …). Briefly: ELISA assay C, tracer FcγRI-Dig, target 3 ng/mL.
Test [16] concerns the target T4, anti-IGF-1R antibody (IgG1 subclass …). The experiment in a line: ELISA assay C, tracer FcγRI-Dig, target 3 ng/mL.
The target in test [17] is T5, anti-VEGF/ANG2 antibody (IgG1 subclass …). The experiment in a line: ELISA assay C, tracer FcγRI-Dig, target 3 ng/mL.
For test [18], the target named is T1, anti-VEGF/ANG2 antibody (IgG1 subclass …). The experiment in a line: ELISA assay C, tracer FcγRI-Dig, target 2 ng/mL.
For test [19], the target named is T2, anti-P-Selectin antibody (IgG4 subclass …). Briefly: ELISA assay C, tracer FcγRI-Dig, target 2 ng/mL.
In test [20] the target is T3, anti-VEGF/ANG2 antibody (wild-type IgG1 …). The experiment in a line: ELISA assay C, tracer FcγRI-Dig, target 2 ng/mL.
The target in test [21] is T4, anti-IGF-1R antibody (IgG1 subclass …). Briefly: ELISA assay C, tracer FcγRI-Dig, target 2 ng/mL.
Test [22] deals with T5, anti-VEGF/ANG2 antibody (IgG1 subclass …). Briefly: ELISA assay C, tracer FcγRI-Dig, target 2 ng/mL.
Test [23] deals with T2, anti-P-Selectin antibody (IgG4 subclass …). Briefly: ELISA assay B, tracer M1.7.10-Dig, target 25 ng/mL. How it is done: as §1

B1: anti-PG variant Fc-region antibody M1.3.17 (antibody, V domains shown)
VH: EVKLLESGGGLVQPGGSLKLSCAASGIDFRRYWMNWVRQAPGKGLEWIGEIDPDSSTINYTPSLKDKFIISRDNAKNTMYLQMRKVRSEDTALYYCARPYDYGAWFAYWGQGTLVTVSA
VL: QAVVTQESALTTSPGETVTLTCRSTTGAVTTSNYANWVQEKPDHLFTGLIGGTNKRAPGVPARFSGSLIGDKAALTITGAQTEDEAIYFCALWYSDHWVFGGGTKLTVL
notes: Monomeric, bivalent full-length antibody with murine variable domains; Biotinylated when used as capture antibody; also called anti-PG antibody clone 1.3.17; M1.3.17-Bi
With B1, the “signal [OD405 nm]” value in test [1] came out at 1.14 OD405 nm; in test [2], 1.16 OD405 nm; in test [3], 1.17 OD405 nm; in [4] it was 1.21 OD405 nm; in test [5], 1.23 OD405 nm; in test [6], 1.16 OD405 nm. Further, the “signal [OD405 nm]” value in test [7] came out at 1.2 OD405 nm; in [8], 0.035 OD405 nm; in test [9] it was 0.048 OD405 nm; in [10], 0.043 OD405 nm; in test [11], 0.05 OD405 nm; in test [12] it was 0.216 OD405 nm. Also, the “signal [OD405 nm]” value was 1.16 OD405 nm in test [13]; 1.19 OD405 nm in test [14]; 1.19 OD405 nm in [15]; 1.21 OD405 nm in [16]; 1.22 OD405 nm in [17]; 1.17 OD405 nm in test [18]. Besides, the “signal [OD405 nm]” value came to 1.19 OD405 nm in test [19]; 1.19 OD405 nm in test [20]; 1.26 OD405 nm in [21]; 1.22 OD405 nm in [22]; 0.047 OD405 nm in test [23].

B2: anti-PG variant Fc-region antibody M1.7.24 (monomeric, bivalent) (antibody, V domains shown)
VH: EVKLLESGGGLVQPGGSLKLSCAASGFDFSRYWMNWVRQAPGKGLEWIGEITPDSSTINYTPSLKDKFIISRDNAKNTLYLQMIKVRSEDTALYYCVRPYDYGAWFASWGQGTLVTVSA
VL: QAVVTQESALTTSPGETVTLTCRSSTGAVTTSNYANWVQEKPDHLFTGLIGGTNKRAPGVPARFSGSLIGDKAALTITGAQTEDEAIYFCALWYSNHWVFGGGTKLTVL
notes: Full-length Y-shaped antibody with murine variable domains; Biotinylated when used as capture antibody; also called anti-PG antibody clone 1.7.24; M1.7.24-Bi
For B2, the “signal [OD405 nm]” value is 0.085 OD405 nm in test [1]; 0.066 OD405 nm in test [2]; 0.057 OD405 nm in test [3]; 0.058 OD405 nm in [4]; 0.06 OD405 nm in test [5]; 0.063 OD405 nm in test [6]. The “signal [OD405 nm]” value in test [7] is 0.073 OD405 nm; in [8], 0.057 OD405 nm; in test [9] it was 0.05 OD405 nm; in test [10], 0.047 OD405 nm; in test [11] it was 0.098 OD405 nm; in [12], 3.23 OD405 nm. Moreover, the “signal [OD405 nm]” value in test [13] came to 0.094 OD405 nm; in test [14], 0.053 OD405 nm; in [15], 0.053 OD405 nm; in test [16], 0.077 OD405 nm; in [17], 0.057 OD405 nm; in [18], 0.085 OD405 nm. Further, the “signal [OD405 nm]” value turned out to be 0.056 OD405 nm in test [19]; 0.058 OD405 nm in test [20]; 0.074 OD405 nm in [21]; 0.093 OD405 nm in test [22]; 0.04 OD405 nm in [23].

B3: anti-AAA variant Fc-region antibody M1.6.22 (antibody, V domains shown)
VH: EVQLVESGGDLVKPGGSLKLSCAASGFTFSSYGMSWVRQTPDKRLEWVATISSGGSYIYYPDSVKGRFTISRDNAKNTLYLQMSSLKSEDTAMYYCARLGMITTGYAMDYWGQGTSVTVSS
VL: DVLMTQTPLSLPVSLGDQASISCRSSQTIVHSTGHTYLEWFLQKPGQSPKLLIYKVSNRFSGVPDRFSGSGSGTDFTLKISRVEAEDLGVYYCFQGSHVPYTFGGGTKLEIK
notes: Murine variable domains; also called M1.6.22-Bi
On to B3, for which the “signal [OD405 nm]” value in [1] came out at 0.064 OD405 nm; in [2], 0.052 OD405 nm; in test [3], 0.07 OD405 nm; in test [4], 0.175 OD405 nm; in [5], 0.061 OD405 nm; in [6] it was 0.066 OD405 nm. For the same molecule, the “signal [OD405 nm]” value amounted to 0.401 OD405 nm in test [7]; 0.052 OD405 nm in test [8]; 0.051 OD405 nm in test [9]; 0.061 OD405 nm in test [10]; 2.9 OD405 nm in test [11]; 0.21 OD405 nm in test [12]. Also, the “signal [OD405 nm]” value is 0.066 OD405 nm in test [13]; 0.05 OD405 nm in test [14]; 0.069 OD405 nm in [15]; 0.083 OD405 nm in test [16]; 0.068 OD405 nm in [17]; 0.077 OD405 nm in [18]. The “signal [OD405 nm]” value was 0.067 OD405 nm in [19]; 0.077 OD405 nm in [20]; 0.082 OD405 nm in test [21]; 0.072 OD405 nm in [22]; 0.048 OD405 nm in test [23].
